Reference: publication PMC3288397 (2012)

Columns and labels:
[1] = test system: CSC[C@H]1O[C@@H](n2cnc3c(N)ncnc32)[C@H](O)[C@@H]1O; assay: purified protein; settings: phosphate
[2] = test system: Nc1ncnc2c1ncn2[C@@H]1O[C@H](CO)[C@@H](O)[C@H]1O; assay: purified protein; settings: phosphate
[3] = biological target: Rv0535 (M. tuberculosis methylthioadenosine phosphorylase, MTAP) (Mycobacterium tuberculosis, UniProt O06401); assay: HPLC cleavage assay at […]; format: biochemical
Rv0535 (M. tuberculosis methylthioadenosine phosphorylase, MTAP), sequence (O06401 whole entry): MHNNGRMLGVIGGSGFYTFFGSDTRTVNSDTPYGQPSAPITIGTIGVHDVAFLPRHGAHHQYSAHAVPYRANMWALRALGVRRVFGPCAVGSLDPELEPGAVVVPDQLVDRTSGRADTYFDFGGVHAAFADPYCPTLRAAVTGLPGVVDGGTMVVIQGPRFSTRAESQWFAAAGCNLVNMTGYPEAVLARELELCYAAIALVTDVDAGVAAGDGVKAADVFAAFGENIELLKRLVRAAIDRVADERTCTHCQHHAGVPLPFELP

Rv0535 (M. tuberculosis methylthioadenosine phosphorylase, MTAP) (Mycobacterium tuberculosis H37Rv)
kcat [1]: 0.4 ± 0.2 s⁻¹
Km [2]: 1700 ± 200 µM

Nc1ncnc2c1ncn2[C@@H]1O[C@H](CSCC[C@H](N)C(=O)O)[C@@H](O)[C@H]1O [S-Adenosyl-L-homocysteine]
Enzyme Activity (nmoles mg^-1 hr^-1) ^a [3]: 800 ± 100 nmol/mg/h
